According to publication PMC8273347:

Columns and labels:
[1] = molecular target: 30S initiation complex (30S subunit, IF3_(488), IF2, mRNA, GTP, fMet-tRNA^fMet) (UniProt P0A707); test: FRET or BRET; stopped-flow chase as a1 (0.05 µM complex, 0.5 µM unlabelled IF1, TAKM7 buffer), with 100 µM Oxytetracycline (Otc)
[2] = molecular target: 30S initiation complex (30S subunit, IF3_(488), IF2, mRNA, GTP, fMet-tRNA^fMet) (UniProt P0A707); test: as above; remark: listed apart in the source
[3] = molecular target: 30S–IF3_(488) complex (30S ribosomal subunit with bound Alexa-488-labelled IF3) (UniProt P0A707); test: as above
[4] = molecular target: 30S pre-initiation complex (30S subunit, IF3_(488), IF2, mRNA, GTP) (UniProt P0A707); test: as above
[5] = molecular target: 30S initiation complex (30S subunit, IF3_(488), IF2, mRNA, GTP, fMet-tRNA^fMet) (UniProt P0A707); test: FRET or BRET; stopped-flow chase: 0.05 µM 30S complex with IF3_(488) (donor) and IF1_(540Q) (acceptor) mixed with 10-fold excess (0.5 µM) unlabelled IF1, donor fluorescence in time, single exponential fit; TAKM7 buffer (25 mM Tris-HCl pH 7.4, 70 mM NH4Ac, 30 mM KCl, 7 mM MgCl2); no tetracycline
[6] = molecular target: 30S–IF3_(488) complex (30S ribosomal subunit with bound Alexa-488-labelled IF3) (UniProt P0A707); test: as above
[7] = molecular target: 30S pre-initiation complex (30S subunit, IF3_(488), IF2, mRNA, GTP) (UniProt P0A707); test: as above
[8] = molecular target: 30S initiation complex (30S subunit, IF3_(488), IF2, mRNA, GTP, fMet-tRNA^fMet) (UniProt P0A707); test: FRET or BRET; stopped-flow chase as a1 (0.05 µM complex, 0.5 µM unlabelled IF1, TAKM7 buffer), with 100 µM Tigecycline (Tig)
[9] = molecular target: 30S–IF3_(488) complex (30S ribosomal subunit with bound Alexa-488-labelled IF3) (UniProt P0A707); test: as above
[10] = molecular target: 30S pre-initiation complex (30S subunit, IF3_(488), IF2, mRNA, GTP) (UniProt P0A707); test: as above
[11] = molecular target: 30S initiation complex (30S subunit, IF3_(488), IF2, mRNA, GTP, fMet-tRNA^fMet) (UniProt P0A707); test: FRET or BRET; stopped-flow chase as a1 (0.05 µM complex, 0.5 µM unlabelled IF1, TAKM7 buffer), with 100 µM Demeclocycline (Dem)
[12] = molecular target: 30S–IF3_(488) complex (30S ribosomal subunit with bound Alexa-488-labelled IF3) (UniProt P0A707); test: as above
[13] = molecular target: 30S pre-initiation complex (30S subunit, IF3_(488), IF2, mRNA, GTP) (UniProt P0A707); test: as above

koff [1]: 0.3 s⁻¹
koff [2]: 0.03 s⁻¹
koff [3]: 0.26 s⁻¹
koff [4]: 0.02 s⁻¹
koff [5]: 0.02 s⁻¹
koff [6]: 0.3 s⁻¹
koff [7]: 0.03 s⁻¹
koff [8]: 0.015 s⁻¹
koff [9]: 0.021 s⁻¹
koff [10]: 0.015 s⁻¹
koff [11]: 0.012 s⁻¹
koff [12]: 0.2 s⁻¹
koff [13]: 0.02 s⁻¹
Substance: IF1 D4C labelled with Atto-540Q (natural protein)
